For series [1], the system named is AAVS1 ZFN right (synthetic). In words: cell_activity. Particulars: pair with left ZFN; A549 clones positive for HindIII site (308 of 933); none with oligo alone.
Series [2] has as its system AAVS1 ZFN left (synthetic). Kind of series: cell_activity. Particulars: pair with right ZFN; A549 clones positive for HindIII site (308 of 933); none with oligo alone.

“TAGGGACAGGAT (double strand) [AAVS1 right ZFN binding site]”: in series [1], the activity stood at 33%.
Turning to “ACCCCACAGTGG (double strand) [AAVS1 left ZFN binding site]”, in series [2], the activity came out at 33%.
